# Tests used:
# [1] = target: YjdL from E. coli, wild type (E. coli) (UniProt P39276)
# YjdL-Asp392Ser (E. coli) = YjdL-Asp392Ser (E. coli) (UniProt P39276)
# [2] = target: YjdL from E. coli, wild type (E. coli) (UniProt P39276); remark: listed apart in the source
# YjdL-Ala281Phe (E. coli) = YjdL-Ala281Phe (E. coli) (UniProt P39276)
# YjdL Tyr21Phe (E. coli) = YjdL Tyr21Phe (E. coli) (UniProt P39276)
# YjdL Tyr25Phe (E. coli) = YjdL Tyr25Phe (E. coli) (UniProt P39276)
# YjdL-Trp278Phe (E. coli) = YjdL-Trp278Phe (E. coli) (UniProt P39276)
# YjdL Tyr58Phe (E. coli) = YjdL Tyr58Phe (E. coli) (UniProt P39276)
# YjdL Tyr113Phe (E. coli) = YjdL Tyr113Phe (E. coli) (UniProt P39276)
substance,measurement,setting,value
Ala-Ala-Ala (peptide),"β-Ala-Lys(AMCA) uptake (0.5 mM) left with 50 mM competitor, E. coli cells, pH 6.5",[1],55%
same,"β-Ala-Lys(AMCA) uptake (0.5 mM) left with 50 mM competitor, E. coli cells, pH 6.5",YjdL-Asp392Ser (E. coli),34%
Ala-Lys (peptide),"IC50 of inhibition of β-Ala-Lys(AMCA) uptake into E. coli cells (0.2 mM substrate, 5 min, pH 6.5)",[2],0.28 mM
same,"IC50 of inhibition of β-Ala-Lys(AMCA) uptake into E. coli cells (0.5 mM substrate, 15 min, pH 6.5)",[2],0.89 mM
same,"IC50 of inhibition of β-Ala-Lys(AMCA) uptake into E. coli cells (0.2 mM substrate, 5 min, pH 6.5)",YjdL-Ala281Phe (E. coli),0.26 mM
same,"IC50 of inhibition of β-Ala-Lys(AMCA) uptake into E. coli cells (0.2 mM substrate, 5 min, pH 6.5)",YjdL Tyr21Phe (E. coli),0.45 mM
same,"IC50 of inhibition of β-Ala-Lys(AMCA) uptake into E. coli cells (0.2 mM substrate, 5 min, pH 6.5)",YjdL Tyr25Phe (E. coli),0.4 mM
same,"IC50 of inhibition of β-Ala-Lys(AMCA) uptake into E. coli cells (0.2 mM substrate, 5 min, pH 6.5)",YjdL-Trp278Phe (E. coli),0.38 mM
same,"IC50 of inhibition of β-Ala-Lys(AMCA) uptake into E. coli cells (0.5 mM substrate, 15 min, pH 6.5)",YjdL Tyr58Phe (E. coli),> 50 mM
same,"IC50 of inhibition of β-Ala-Lys(AMCA) uptake into E. coli cells (0.2 mM substrate, 5 min, pH 6.5)",YjdL Tyr113Phe (E. coli),0.34 mM
same,"β-Ala-Lys(AMCA) uptake (0.5 mM) left with 50 mM competitor, E. coli cells, pH 6.5",[1],< 10%
